Data: patent publication US20120034160A1 (AbbVie / Abbott, published 2012)
Changes are numbered by the printed parent chain.

T1: Recombinant Human IL-17 (human, UniProt Q16552 20-155, limits assumed)
T1 construct: bought reagent
T1 sequence (looked up): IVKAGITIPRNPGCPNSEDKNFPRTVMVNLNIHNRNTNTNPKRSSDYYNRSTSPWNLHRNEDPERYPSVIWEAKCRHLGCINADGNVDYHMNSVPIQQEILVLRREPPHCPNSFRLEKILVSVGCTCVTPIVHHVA

B1: DVD1620 (bispecific antibody, human IgG1, kappa)
heavy: not shown
light: DIQMTQSPSSLSASVGDRVTITCRASSGIISYIDWFQQKPGKAPKRLIYATFDLASGVPSRFSGSGSGTDYTLTISSLQPEDFATYYCRQVGSYPETFGQGTKLEIKRTVAAPDIQMTQSPSSLSASVGDRVTITCRASGNIHNYLTWYQQTPGKAPKLLIYNAKTLADGVPSRFSGSGSGTDYTFTISSLQPEDIATYYCQHFWSIPYTFGQGTKLQITRTVAAPSVFIFPPSDEQLKSGTASVVCLLNNFYPREAKVQWKVDNALQSGNSQESVTEQDSKDSTYSLSSTLTLSKADYEKHKVYACEVTHQGLSSPVTKSFNRGEC
notes: V1 wt hIgG1, V2 kappa; also called DVD1620H; DVD1620L
B2: DVD1622 (bispecific antibody, human IgG1, kappa)
heavy: not shown
light: B1 light
notes: V1 wt hIgG1, V2 kappa; also called DVD1622H; DVD1622L
B3: DVD1606 (bispecific antibody, human IgG1, kappa)
heavy: not shown
light: EIVLTQSPDFQSVTPKEKVTITCRASQDIGSELHWYQQKPDQPPKLLIKYASHSTSGVPSRFSGSGSGTDFTLTINGLEAEDAGTYYCHQTDSLPYTFGPGTKVDIKRTVAAPSVFIFPPDTVVTQSPAFLSVTPGEKVTITCITSTDIDVDMNWYQQKPDQPPKLLISQGNTLRPGVPSRFSSSGSGTDFTFTISSLEAEDAATYYCLQSDNLPLTFGQGTKLEIKRTVAAPSVFIFPPSDEQLKSGTASVVCLLNNFYPREAKVQWKVDNALQSGNSQESVTEQDSKDSTYSLSSTLTLSKADYEKHKVYACEVTHQGLSSPVTKSFNRGEC
notes: DVD-Ig, outer AB274, inner AB271, linker set 2; V1 wt hIgG1, V2 kappa; also called DVD1606H; DVD1606L
B4: DVD1616 (bispecific antibody, human IgG1, kappa)
heavy: not shown
light: B3 light with D28N, P43S, T55I, G84A, T91S, S93T, Y96H, P100Q
notes: DVD-Ig, outer AB275, inner AB271, linker set 2; V1 wt hIgG1, V2 kappa; also called DVD1616H; DVD1616L
B5: DVD1626 (bispecific antibody, human IgG1, kappa)
heavy: not shown
light: DIQMTQSPSSLSASVGDRVTITCRASSGIISYIDWFQQKPGKAPKRLIYATFDLASGVPSRFSGSGSGTDYTLTISSLQPEDFATYYCRQVGSYPETFGQGTKLEIKRTVAAPDTVVTQSPAFLSVTPGEKVTITCITSTDIDVDMNWYQQKPDQPPKLLISQGNTLRPGVPSRFSSSGSGTDFTFTISSLEAEDAATYYCLQSDNLPLTFGQGTKLEIKRTVAAPSVFIFPPSDEQLKSGTASVVCLLNNFYPREAKVQWKVDNALQSGNSQESVTEQDSKDSTYSLSSTLTLSKADYEKHKVYACEVTHQGLSSPVTKSFNRGEC
notes: DVD-Ig, outer AB273, inner AB271, linker set 3; V1 wt hIgG1, V2 kappa; also called DVD1626H; DVD1626L
B6: DVD1608 (bispecific antibody, human IgG1, kappa)
heavy: not shown
light: EIVLTQSPDFQSVTPKEKVTITCRASQDIGSELHWYQQKPDQPPKLLIKYASHSTSGVPSRFSGSGSGTDFTLTINGLEAEDAGTYYCHQTDSLPYTFGPGTKVDIKRTVAAPSVFIFPPETTVTQSPSSLSASVGDRVTITCITSTDIDVDMNWYQQKPGKPPKLLISQGNTLRPGVPSRFSSSGSGTDFTFTISSLQPEDFATYYCLQSDNLPLTFGQGTKLEIKRTVAAPSVFIFPPSDEQLKSGTASVVCLLNNFYPREAKVQWKVDNALQSGNSQESVTEQDSKDSTYSLSSTLTLSKADYEKHKVYACEVTHQGLSSPVTKSFNRGEC
notes: DVD-Ig, outer AB274, inner AB272, linker set 2; V1 wt hIgG1, V2 kappa; also called DVD1608H; DVD1608L
B7: DVD1618 (bispecific antibody, human IgG1, kappa)
heavy: not shown
light: B6 light with D28N, P43S, T55I, G84A, T91S, S93T, Y96H, P100Q
notes: DVD-Ig, outer AB275, inner AB272, linker set 2; V1 wt hIgG1, V2 kappa; also called DVD1618H; DVD1618L
B8: DVD1614 (bispecific antibody, human IgG1, kappa)
heavy: not shown
light: B6 light with D28N, P43S, T55I, G84A, T91S, S93T, Y96H, P100Q, E121D, T123Q
notes: DVD-Ig, outer AB275, inner AB270, linker set 2; V1 wt hIgG1, V2 kappa; also called DVD1614H; DVD1614L
B9: DVD1624 (bispecific antibody, human IgG1, kappa)
heavy: not shown
light: DIQMTQSPSSLSASVGDRVTITCRASSGIISYIDWFQQKPGKAPKRLIYATFDLASGVPSRFSGSGSGTDYTLTISSLQPEDFATYYCRQVGSYPETFGQGTKLEIKRTVAAPDTQVTQSPSSLSASVGDRVTITCITSTDIDVDMNWYQQKPGKPPKLLISQGNTLRPGVPSRFSSSGSGTDFTFTISSLQPEDFATYYCLQSDNLPLTFGQGTKLEIKRTVAAPSVFIFPPSDEQLKSGTASVVCLLNNFYPREAKVQWKVDNALQSGNSQESVTEQDSKDSTYSLSSTLTLSKADYEKHKVYACEVTHQGLSSPVTKSFNRGEC
notes: DVD-Ig, outer AB273, inner AB270, linker set 3; V1 wt hIgG1, V2 kappa; also called DVD1624H; DVD1624L
B10: DVD1610 (bispecific antibody, human IgG1, kappa)
heavy: not shown
light: EIVLTQSPDFQSVTPKEKVTITCRASQNIGSELHWYQQKPDQSPKLLIKYASHSISGVPSRFSGSGSGTDFTLTINGLEAEDAATYYCHQSDTLPHTFGQGTKVDIKRTVAAPSVFIFPPDIQMTQSPSSLSASVGDRVTITCRASGNIHNYLTWYQQTPGKAPKLLIYNAKTLADGVPSRFSGSGSGTDYTFTISSLQPEDIATYYCQHFWSIPYTFGQGTKLQITRTVAAPSVFIFPPSDEQLKSGTASVVCLLNNFYPREAKVQWKVDNALQSGNSQESVTEQDSKDSTYSLSSTLTLSKADYEKHKVYACEVTHQGLSSPVTKSFNRGEC
notes: V1 wt hIgG1, V2 kappa; also called DVD1610H; DVD1610L
B11: DVD1612 (bispecific antibody, human IgG1, kappa)
heavy: not shown
light: B10 light
notes: V1 wt hIgG1, V2 kappa; also called DVD1612H; DVD1612L

target: T2, Recombinant Human IL-1β (human, UniProt P01584 117-269); test: Biacore SPR; C-terminal VD
T2 construct: bought reagent; also called IL-1B
Procedure: (§1) The BIACORE assay (Biacore, Inc, Piscataway, N.J.) determines the affinity of antibodies or DVD-Ig with kinetic measurements of on-rate and off-rate constants. Binding of antibodies or DVD-Ig to a target antigen (for example, a purified recombinant target antigen) was determined by surface plasmon resonance-based measurements with a Biacore® 1000 or 3000 instrument (Biacore® AB, Uppsala, Sweden) using running HBS-EP (10 mM HEPES [pH 7.4], 150 mM NaCl, 3 mM EDTA, and 0.005% surfactant P20) at 25° C. All chemicals were obtained from Biacore® AB (Uppsala, Sweden) or otherwise from a different source as described in the text. For example, approximately 5000 RU of goat anti-mouse IgG, (Fcγ), fragment specific polyclonal antibody (Pierce Biotechnology Inc, Rockford, Ill.) diluted in 10 mM sodium acetate (pH 4.5) was directly immobilized across a CM5 research grade biosensor chip using a standard amine coupling kit according to manufacturer's instructions and procedures at 25 μg/ml. Unreacted moieties on the biosensor surface were blocked with ethanolamine. Modified carboxymethyl dextran surface in flowcell 2 and 4 was used as a reaction surface. Unmodified carboxymethyl dextran without goat anti-mouse IgG in flow cell 1 and 3 was used as the reference surface. For kinetic analysis, rate equations derived from the 1:1 Langmuir binding model were fitted simultaneously to association and dissociation phases of all eight injections (using global fit analysis) with the use of Biaevaluation 4.0.1 software. Purified antibodies or DVD-Ig were diluted in HEPES-buffered saline for capture across goat anti-mouse IgG specific reaction surfaces. Antibodies or DVD-Ig to be captured as a ligand (25 μg/ml) were injected over reaction matrices at a flow rate of 5 μl/min. The association and dissociation rate constants, kₒₙ (M⁻¹s⁻¹) and koff (s⁻¹) were determined under a continuous flow rate of 25 μl/min. Rate constants were derived by making kinetic binding measurements at different antigen concentrations ranging from 10−200 nM. The equilibrium dissociation constant (M) of the reaction between antibodies or DVD-Igs and the target antigen was then calculated from the kinetic rate constants by the following formula: KD=koff/kₒₙ. Binding was recorded as a function of time and kinetic rate constants are calculated.

Row | Kd [nM] | koff [s⁻¹] | kon [M⁻¹ s⁻¹] | Binder
1 | 0.29 | 9.4e-05 | 330000 | B1
2 | 0.16 | 0.00023 | 1.5e+06 | B2
3 | 0.32 | 0.00044 | 1.4e+06 | B3
4 | 0.22 | 0.00036 | 1.6e+06 | B4
5 | 1 | 0.00047 | 470000 | B5
6 | 0.37 | 0.00056 | 1.5e+06 | B6
7 | 0.26 | 0.00062 | 2.4e+06 | B7
8 | 0.18 | 0.0003 | 1.7e+06 | B8
9 | 0.84 | 0.00046 | 550000 | B9
10 | 0.25 | 7.3e-05 | 290000 | B10
11 | 0.15 | 2.5e-05 | 160000 | B11

target: T1, Recombinant Human IL-17; test: Biacore SPR; N-terminal VD
Procedure: as §1

Row | Kd [nM] | koff [s⁻¹] | kon [M⁻¹ s⁻¹] | Binder
12 | 0.0019 | 7.1e-06 | 3.8e+06 | B1
13 | 0.00046 | 1.7e-06 | 3.7e+06 | B2
14 | 0.00067 | 3e-06 | 4.4e+06 | B3
15 | 0.015 | 4.9e-05 | 3.3e+06 | B4
16 | 0.0034 | 1.6e-05 | 4.8e+06 | B5
17 | 0.0026 | 1.2e-05 | 4.8e+06 | B6
18 | 0.019 | 6.3e-05 | 3.2e+06 | B7
19 | 0.014 | 4.8e-05 | 3.5e+06 | B8
20 | 0.011 | 4.1e-05 | 3.7e+06 | B9
21 | 0.017 | 5.7e-05 | 3.5e+06 | B10
22 | 0.016 | 5.1e-05 | 3.2e+06 | B11
